For 1 substance, cAMP accumulation (HTRF) in HEK293 cells stably expressing human GLP-1R, EC50 results are on record in article doi:10.1101/2025.03.26.645438.

For this assay, the target named is Human GLP1R protein (human) (UniProt P43220).
Sequence of Human GLP1R protein (human) (P43220 24-463): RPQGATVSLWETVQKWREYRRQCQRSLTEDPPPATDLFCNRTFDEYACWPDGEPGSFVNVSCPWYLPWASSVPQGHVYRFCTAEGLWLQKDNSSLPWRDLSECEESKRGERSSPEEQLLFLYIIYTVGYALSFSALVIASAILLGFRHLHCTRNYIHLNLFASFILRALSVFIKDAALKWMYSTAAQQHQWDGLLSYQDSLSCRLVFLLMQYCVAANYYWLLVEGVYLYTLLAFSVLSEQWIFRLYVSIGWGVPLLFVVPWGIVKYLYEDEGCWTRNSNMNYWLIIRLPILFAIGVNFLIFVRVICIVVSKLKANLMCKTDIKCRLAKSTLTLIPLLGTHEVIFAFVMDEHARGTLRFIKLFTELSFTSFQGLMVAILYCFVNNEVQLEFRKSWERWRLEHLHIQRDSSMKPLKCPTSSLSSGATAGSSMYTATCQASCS

Regarding Semaglutide (peptide), the cAMP accumulation (HTRF) in HEK293 cells stably expressing human GLP-1R, EC50 came to 0.019 nM.
